Drawing on article PMC2480485 (Journal of Biomolecular Nmr, 2008), this text covers Kd and fraction of protein bound for 2 molecules.

The target in test [1] is mouse Src SH3 domain, residues 85-142 (mouse) (UniProt P05480). Kind of test: NMR titration.
Test [2] has the same target. Kind of test: paramagnetic relaxation enhancement NMR.
In test [3] the target is mouse Src SH3 domain, residues 85-142 (mouse, UniProt P05480-2 85-142). Kind of test: NMR titration.

Broadly, the Kd is the free concentration of one partner at which half of the binding sites on the other are occupied at equilibrium, for simple one-to-one binding. The low end stands for higher affinity, the high end for lower affinity. Take “peptide P3Tm (RALP-TOAC-IPKL, TOAC within the core binding motif of the FAK peptide)”: the dissociation constant Kd in test [1] is 900 µM. The fraction of protein bound in test [2] was found to be 44%.

In test [3], Ac-RALPSIPKL-NH2 [peptide P3 (unlabelled control peptide derived from focal adhesion kinase, RALPSIPKL)] gave a Kd of 56 ± 11 µM.
